The target in one assay is UBE2D1 (Homo sapiens (Human), UniProt P51668). Put plainly: ITC; UbcH7 cells RING1 fragment, UbcH5A cells whole RBR. For orientation: ITC needs no label: the signal is the heat of the interaction.
The next assay concerns the target UBE2L3 (Homo sapiens (Human), UniProt P68036). Described as above.

Chain of UBE2L3 (P68036 whole entry): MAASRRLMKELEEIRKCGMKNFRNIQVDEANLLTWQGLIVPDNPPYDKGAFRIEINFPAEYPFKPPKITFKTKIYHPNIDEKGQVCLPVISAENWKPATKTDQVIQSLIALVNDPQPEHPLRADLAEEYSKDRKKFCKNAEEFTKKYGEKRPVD
Chain of UBE2D1 (P51668 whole entry, the tested form may be a part): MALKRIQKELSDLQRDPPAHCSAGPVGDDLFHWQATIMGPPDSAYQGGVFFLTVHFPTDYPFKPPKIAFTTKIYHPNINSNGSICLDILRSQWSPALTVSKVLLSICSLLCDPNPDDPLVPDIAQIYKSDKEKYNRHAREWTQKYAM

B1: TRIAD3A (protein)
chain: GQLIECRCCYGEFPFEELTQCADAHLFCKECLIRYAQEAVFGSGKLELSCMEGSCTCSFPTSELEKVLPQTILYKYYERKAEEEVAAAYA
For B1, the Kd (as a rule, the constant that tells how readily two partners part at equilibrium) in the assay with UBE2D1 is above 50 µM; in the assay with UBE2L3, 3200 nM.

B2: HHARI (protein)
chain: TRSSAQDMPCQICYLNYPNSYFTGLECGHKFCMQCWSEYLTTKIMEEGMGQTISCPAHGCDILVDDNTVMRLITDSKVKLKYQHLITNSFVECN
With B2, the Kd is above 50 µM with UBE2D1 and 210 nM in the assay with UBE2L3.

Values taken from paper PMC5758712 (2018).
